Experimental data as given in publication PMC2637931.

Assays:
[1] = target: soluble portion of the transferrin receptor expressed as a recombinant entity (UniProt P02786)
[2] = target: sTFR with 5-hydroxytryptophan substituted for Trp (UniProt P02786)

Sequence of soluble portion of the transferrin receptor expressed as a recombinant entity (P02786 122-760): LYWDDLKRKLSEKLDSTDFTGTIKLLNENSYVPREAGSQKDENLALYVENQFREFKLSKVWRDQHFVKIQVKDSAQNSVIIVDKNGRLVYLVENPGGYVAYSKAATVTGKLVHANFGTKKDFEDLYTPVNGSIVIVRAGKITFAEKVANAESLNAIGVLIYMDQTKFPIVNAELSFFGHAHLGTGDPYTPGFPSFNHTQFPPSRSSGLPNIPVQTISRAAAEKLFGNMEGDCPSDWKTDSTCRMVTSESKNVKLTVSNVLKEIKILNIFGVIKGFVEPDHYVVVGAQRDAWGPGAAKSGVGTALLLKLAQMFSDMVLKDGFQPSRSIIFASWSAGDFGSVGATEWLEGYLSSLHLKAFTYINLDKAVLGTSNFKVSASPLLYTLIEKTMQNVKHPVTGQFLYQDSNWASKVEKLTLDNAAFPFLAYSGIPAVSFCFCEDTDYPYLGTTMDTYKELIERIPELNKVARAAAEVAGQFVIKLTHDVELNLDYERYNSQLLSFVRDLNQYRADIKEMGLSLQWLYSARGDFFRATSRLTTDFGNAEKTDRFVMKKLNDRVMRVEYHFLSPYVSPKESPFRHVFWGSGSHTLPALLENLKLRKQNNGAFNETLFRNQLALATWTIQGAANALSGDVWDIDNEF

k (obsC1) of iron release from the complex at pH 5.6, excitation 280 nm [1]: 25.8 min^-1
k (obsC1) of iron release from the complex at pH 5.6, excitation 315 nm [1]: 14.1 min^-1
k (obsC2) of iron release from the complex at pH 5.6, excitation 280 nm [1]: 8.3 min^-1
k (obsC2) of iron release from the complex at pH 5.6, excitation 315 nm [1]: 2.8 min^-1
k (obsC1) of iron release from the complex at pH 5.6, excitation 280 nm [2]: 18.1 min^-1
k (obsC1) of iron release from the complex at pH 5.6, excitation 315 nm [2]: 22.4 min^-1
k (obsC2) of iron release from the complex at pH 5.6, excitation 280 nm [2]: 4 min^-1
k (obsC2) of iron release from the complex at pH 5.6, excitation 315 nm [2]: 3.4 min^-1
Substance: FeC hTF with 5-hydroxytryptophan substituted for Trp (from UniProt P02787 20-698) (ligand)
